Measured values reported in patent publication US20030032609A1 (Harvard, published 2003).

Biological target: T1, aryl hydrocarbon receptor nuclear translocator (ARNT) (human, UniProt P27540 1-789, limits assumed)
T1 construct: also called hARNT
Experiment: heterodimer formation by deletion mutant; method not named

T1 sequence (P27540 whole entry): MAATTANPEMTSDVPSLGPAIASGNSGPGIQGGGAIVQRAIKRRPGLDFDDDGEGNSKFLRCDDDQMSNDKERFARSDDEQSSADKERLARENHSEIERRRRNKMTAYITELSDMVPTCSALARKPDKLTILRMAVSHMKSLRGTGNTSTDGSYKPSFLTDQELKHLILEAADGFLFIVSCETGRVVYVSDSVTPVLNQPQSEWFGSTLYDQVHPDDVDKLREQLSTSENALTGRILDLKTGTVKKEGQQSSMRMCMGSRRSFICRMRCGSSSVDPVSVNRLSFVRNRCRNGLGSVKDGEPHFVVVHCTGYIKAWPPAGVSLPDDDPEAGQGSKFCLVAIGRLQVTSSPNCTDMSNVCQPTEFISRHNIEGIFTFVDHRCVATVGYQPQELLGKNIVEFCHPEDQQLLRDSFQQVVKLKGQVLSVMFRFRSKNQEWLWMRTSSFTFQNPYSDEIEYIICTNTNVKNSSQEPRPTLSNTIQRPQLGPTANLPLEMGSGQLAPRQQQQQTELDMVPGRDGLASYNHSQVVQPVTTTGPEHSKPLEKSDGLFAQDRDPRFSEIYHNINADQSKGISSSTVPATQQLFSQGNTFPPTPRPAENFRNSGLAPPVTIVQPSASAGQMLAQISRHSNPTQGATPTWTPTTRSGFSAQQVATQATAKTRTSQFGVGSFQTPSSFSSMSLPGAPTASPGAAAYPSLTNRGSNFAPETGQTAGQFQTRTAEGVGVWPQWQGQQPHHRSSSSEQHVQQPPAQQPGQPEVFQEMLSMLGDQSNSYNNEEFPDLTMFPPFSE

B1: EPAS1 polypeptide lacking amino acids 486-639 of SEQ ID NO: 6 (other)
chain: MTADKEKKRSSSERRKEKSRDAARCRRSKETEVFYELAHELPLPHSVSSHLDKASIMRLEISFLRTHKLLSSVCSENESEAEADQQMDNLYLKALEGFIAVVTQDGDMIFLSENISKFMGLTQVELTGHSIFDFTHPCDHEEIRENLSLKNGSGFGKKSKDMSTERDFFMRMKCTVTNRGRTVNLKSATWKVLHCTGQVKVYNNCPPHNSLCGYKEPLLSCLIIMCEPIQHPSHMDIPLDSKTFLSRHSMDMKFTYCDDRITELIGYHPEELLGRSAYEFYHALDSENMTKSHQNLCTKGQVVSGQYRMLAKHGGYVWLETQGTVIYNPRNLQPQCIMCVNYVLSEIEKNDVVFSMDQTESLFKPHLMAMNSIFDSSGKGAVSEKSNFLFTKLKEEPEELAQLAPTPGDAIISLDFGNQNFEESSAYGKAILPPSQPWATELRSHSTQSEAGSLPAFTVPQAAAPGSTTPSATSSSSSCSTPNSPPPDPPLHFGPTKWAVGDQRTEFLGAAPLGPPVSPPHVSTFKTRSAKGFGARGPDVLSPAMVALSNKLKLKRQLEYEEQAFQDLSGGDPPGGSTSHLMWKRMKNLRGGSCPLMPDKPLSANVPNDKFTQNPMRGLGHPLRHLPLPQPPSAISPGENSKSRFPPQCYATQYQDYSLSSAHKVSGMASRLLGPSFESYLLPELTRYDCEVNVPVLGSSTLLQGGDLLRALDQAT
notes: Internal deletion as worded; The C-terminal end, 870, is derived from '1-690' plus '180 C-terminal amino acids'; also called dominant negative EPAS1 mutant
B1: binds.
